Assay: yeast display, Sf9 membrane polyspecificity reagent, FACS + sequencing; frameworks hold sequencing errors
How it was run: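 A nanobody's polyreactivity label depends on the gate it was sorted from. Yeast display cells were stained with 10% biotinylated, detergent-solubilized Sf9 membrane reagent for 1 hour at 4 °C, enriched on streptavidin microbeads and sorted by FACS. The low and high (top ~1%) gates were set on anti-HA fluorescence for expression and streptavidin fluorescence for reagent binding.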

Sequence	polyreactivity (PSR sort gate)
QVQLVESGGGLVQAGGSLRLSCAASGRILTYNTMGWYRQAPGKERELVAAITWRGGSTYYADSVKGRFTISRDNAKNTVYLQMNSLKPEDTAVYYCAKYVAFHYKQYDFNWGQGTQVTVSS	high polyreactivity
QVQLVESGGGLVQAGGSLRLSCAASGRILVHNAMGWYRQAPGKERELVAAITWSGGSTYYADSVKGRFTISRDNAKNTFYLQMNSLKPEDTAVYYCAAEQWRYDGSFTGYGYWGQGTQVTVSS	low polyreactivity
QVQLVESGGGLVQAGGSLRLSCAASGRILVKNTMGWYRQAPGKERELVAAITSAGNTYYADSVKGRFTITRDNAKNSVYFQMNSLTPEATAVYYCAARNRTFFQPTYYYWGQGTQVTVSS	high polyreactivity
QVQLVESGGGLVQAGGSLRLSCAASGRILVSYAMGWYRQAPGKERELVAAISRSGGSTYYADSVKGRFTISRDNAKNSVYLQMNSLKPEDSAVYYCNVYRFSRYDYWGQGTQVTVSS	high polyreactivity
QVQLVESGGGLVQAGGSLRLSCAASGRILWAYAMGWYRQAPGKEREFVAAISWSTGSTYYADSVKGRFTISRDNAKNTVNIQLNSLQPDDTAVYYCAAQLAKTIRGRGYNSWGQGTQVTVSS	low polyreactivity
QVQLVESGGGLVQAGGSLRLSCAASGRILYHYAMGWYRQAPGKERELVAAITFSGDTTYYADSVKGRFTISRDNAKNTVYLQMNSLKPEDTAVYYCNTDYYWNYVSRLYDYWGQGTQVTVSS	high polyreactivity
QVQLVESGGGLVQAGGSLRLSCAASGRILYPYAMGWYRQAPGKERELVAAISSRSANTYYADSVKGRFTISRDNAKNTVYLQMNSLKPEDTAVYYCAARSLGLGFGHWGQGTQVTVSS	high polyreactivity
QVQLVESGGGLVQAGGSLRLSCAASGRILYRYVMGRYRQAPGKERELVAGISWSGGSTYYADSVKGRFTISSDTAKNTVYLQMNSLKPEVTAVYYCASTFRTYAPRPYQGDYWGQGTQVTVSS	low polyreactivity
QVQLVESGGGLVQAGGSLRLSCAASGRILYSYAMGWYRQEPGQEREFVAAIRRSGGSTYYADSVKGRFTISRDNAQNTVYLQMNSLKPEETAVDYCAAGRRSSGSYDYWGQGTQVTVSS	high polyreactivity
QVQLVESGGGLVQAGGSLRLSCAASGRILYVNAMGWSRQAPGKERELVAAISWRGGRTYYADSVKGRFTISRDTAKNTVYLQMNSLKPEDTAVYYCAARARGGYQRDYWGQGTQVTVSS	high polyreactivity
QVQLVESGGGLVQAGGSLRLSCAASGRILYYYAMGWSRQAPGKERELVAGITTDDSTNYADSVKGRFTISRDNAKNTVYLQMNSLKPEDTAVYYCAAKYVHGEYDYWGQGTQVTVSS	low polyreactivity
QVQLVESGGGLVQAGGSLRLSCAASGRILYYYAMGWYRQAPGKERELVAAITWGGGSTYYADSVKGRFTISRDNAKKSVYLQMNSLTPEETAVYYCNRTFRSRLPTSRGYEYWGQGTQVTVSS	low polyreactivity
QVQLVESGGGLVQAGGSLRLSCAASGRIRYAMGWYRQAPGKERELVAGIRWSGTSTYYADSVKGRFTISRDNAKNTVYLQMNSLKPEDTAVYYCNAKAQSRYVRYGYWGQGTQVSVSS	high polyreactivity
QVQLVESGGGLVQAGGSLRLSCAASGRISDFYAMGWNRQAPGKEREFVAAMSWSGGSTSYADSVKGRFTISRDNAKNTVYLQMNSLKPEDTSVYYCSAKGSRGNSAWYGYWGQGTQVTVSS	high polyreactivity
QVQLVESGGGLVQAGGSLRLSCAASGRISDRNAMGWYRQAPGKERELVATIRSGGSTNYADSVKGRFTISPDNAMNTVYLQMNSLKPEDTAVYYCATAKLTWRSQGLDYWGQGTQVTVSS	low polyreactivity
QVQLVESGGGLVQAGGSLRLSCAASGRISGINVMGWYRQAPGKERELVAAISRSGARTYYADSVKGRFTISRDNAKNTVYLQMNSLKPEDTAVYYCNAANLKYPKYVQGDYWGQGTQVTVSS	high polyreactivity

Sequence	polyreactivity (PSR sort gate)
QVQLVESGGGLVQAGGSLRLSCAASGRISHYNAMGWYRQAPGKERELVAAISSRGGSTYYADSVKGRFTISRDIAKNTVYLQMNSLKPEDTAVYYCADTAGYWGQGTQVTVSS	high polyreactivity
QVQLVESGGGLVQAGGSLRLSCAASGRISIWYDMGWYRQAPGKERELVASITSGGSTYADSVKGRFTISRDNAKNTVYLQMNSLKPEDTAVYYCAADEAPYGTSEQRHSRFSHWGQGTQVTVSS	low polyreactivity
QVQLVESGGGLVQAGGSLRLSCAASGRISLRILWDGIDRRLGKKGSWLPLLTNTGSTNYADSVKGRFTISRDNAKNTVYLQMNSLKPEDTAVYDCNADPTGGSSYPAYFEYDYWGQGTQVTVSS	low polyreactivity
QVQLVESGGGLVQAGGSLRLSCAASGRISLSNAMGWYKQAPGKEREFVAAITKRSDRTYYADSVKGRFTISRDNAKNTVYLQMNSLKPEDTAVYYCAAKPLFGTRDDYWGQGTQVTVSS	low polyreactivity
QVQLVESGGGLVQAGGSLRLSCAASGRISPSYAMGWYRHATGKERELVAAISRGGSTSYADSVKGLFTISRDNAKNTVYLQMNSLKPEDTAVYYCSTRGPRYRNYYWGQGTQVTVSS	high polyreactivity
QVQLVESGGGLVQAGGSLRLSCAASGRISRLNAMGWYRQAPGKERELVATISGRGGGTYYADSVKGRFTISRDNAKNTVYLQMNSLKPEDTAVYYCAVRGLYQGRRRYSSEYDYWGQGTQVTVSS	high polyreactivity
QVQLVESGGGLVQAGGSLRLSCAASGRISRTNAMGWYRQAPGKERELVATITRGGNTNYADSVKGRFTISRDNAKNTVYLPMNSLKPEDTAVYYCAALGRYLRTYRGYVWQFDSWGQGTKVTVSS	high polyreactivity
QVQLVESGGGLVQAGGSLRLSCAASGRISRVYAMGWYRQAPGKERELVASITGRGGSTYYADSVKGRFTISRDNAKNTVYLQMNSLKPEDTAVYYCAALIDVITGQYDYWGQGTQVTVSS	high polyreactivity
QVQLVESGGGLVQAGGSLRLSCAASGRISSSYAMGWYRQAPGKERELVAAIDNSDDTTYYADSVKGRFTISLDNAKNTVYLQMNSLKPEDTAVYSCATLVYSSELGYWGQGTQVTVSS	high polyreactivity
QVQLVESGGGLVQAGGSLRLSCAASGRISSSYDMGWYIQAPAKDRELVAAISSGSSTYYAHSVKVRFTISRDNAKNTVYLQMNSLKREDTAVYYCAKLHYAHYWGQGTQVTVSS	low polyreactivity
QVQLVESGGGLVQAGGSLRLSCAASGRISTRYTMGWYRQAPGKERELVAAISGNAGRTYYADSVKGRFTISRDNAKNTVYVQMNSLKPADTAVYYCARESGYRAYEIQFYYWGQGTQVTVSS	high polyreactivity
QVQLVESGGGLVQAGGSLRLSCAASGRISTTYSMGWYRPAPGKERELVAAITIGGGTNYADSVKGRFTISRDNAKNTVYLQMNSLKPEDTAVFYCNADRTASFAYDYWGQGTQVTVSS	low polyreactivity
QVQLVESGGGLVQAGGSLRLSCAASGRISVKYAMGWYRQAPGKERELVAANDSSGGSTSYADSVKGRFTISRDNAKNTVYLQMNSLKPEDTAVYYCADDTWYRAGYFVFYYDYWGQGTQVTVSS	low polyreactivity
QVQLVESGGGLVQAGGSLRLSCAASGRISVRNTMGWYRQAPGKERELVARISSTGGSTYYADSVKGRFTISRDNAKNTVYLQMNSLKPEDTAVYYCNAKYYTRYPYLGKGDYWGQGTQVTVSS	high polyreactivity
QVQLVESGGGLVQAGGSLRLSCAASGRISVTYAMGWYRQAPGKERELVAAINTSGGTTYYADSVKGRFTISRDNAKNTVYLQMNSLKPEDTAVYYCNAVFYGGVGDNDYWGQGTQVTVSS	high polyreactivity
QVQLVESGGGLVQAGGSLRLSCAASGRISWGYAMGWYRPAPGKERELVAVINFNGGRTYYADSVKGRFTISRDNAKNTVYLQMNSLKPEDTAVYYCAADSGYEYDYWGQGTQVTVSS	low polyreactivity

— the nanobody polyreactivity screen of Harvey et al. (2022)
